According to IntAct's records for PubMed 18854156:

B1: Sporulation initiation inhibitor protein Soj (Bacillus subtilis), P37522 (parent)
chain: MGKIIAITNQKGGVGKTTTSVNLGACLAYIGKRVLLVDIDPQGNATSGLGIEKADVEQCVYDILVDDADVIDIIKATTVENLDVIPATIQLAGAEIELVPTISREVRLKRALEAVKQNYDYIIIDCPPSLGLLTINALTASDSVVIPVQCEYYALEGLSQLLNTVRLVQKHLNTDLMIEGVLLTMLDARTNLGIQVIEEVKKYFRDKVYKTVIPRNVRLSEAPSHGKPIILYDPRSRGAEVYLDLAKEVAANG

Variants of: B1
Settings: with dnaa_bacsu dnaA

Row | Variant | effect of a mutation on the interaction
1 | D40A | decreasing interaction

Variants of: B1
Settings: with dnaa_bacsu dnaA
Remark: another data set of the same source

Row | Variant | effect of a mutation on the interaction
2 | G12V | increasing interaction
3 | K16A | increasing interaction
